Results published in patent US20230227520A1 (MAX PLANCK GESELLSCHAFT ZUR F RDERUNG DER WISSENSCHAFTEN E V, published 2023).

Experiments:
[1] = target: G-CSFR on NFS-60 cells (murine myeloblastic cell line) (mouse) (UniProt P40223); test: cell-based or functional assay
[2] = target: T1, G-CSF Receptor (G-CSFR) (R&D systems 381-GR-050/CF), recombinant human (human, UniProt Q99062 25-627, limits assumed); test: SPR, Biacore X100, G-CSFR amine-coupled on CM5, 2nd order kinetics model, second run
T1 construct: Bought protein, amine-coupled to a CM5 chip; also called rhG-CSFR; human G-CSF receptor
T1 sequence (looked up): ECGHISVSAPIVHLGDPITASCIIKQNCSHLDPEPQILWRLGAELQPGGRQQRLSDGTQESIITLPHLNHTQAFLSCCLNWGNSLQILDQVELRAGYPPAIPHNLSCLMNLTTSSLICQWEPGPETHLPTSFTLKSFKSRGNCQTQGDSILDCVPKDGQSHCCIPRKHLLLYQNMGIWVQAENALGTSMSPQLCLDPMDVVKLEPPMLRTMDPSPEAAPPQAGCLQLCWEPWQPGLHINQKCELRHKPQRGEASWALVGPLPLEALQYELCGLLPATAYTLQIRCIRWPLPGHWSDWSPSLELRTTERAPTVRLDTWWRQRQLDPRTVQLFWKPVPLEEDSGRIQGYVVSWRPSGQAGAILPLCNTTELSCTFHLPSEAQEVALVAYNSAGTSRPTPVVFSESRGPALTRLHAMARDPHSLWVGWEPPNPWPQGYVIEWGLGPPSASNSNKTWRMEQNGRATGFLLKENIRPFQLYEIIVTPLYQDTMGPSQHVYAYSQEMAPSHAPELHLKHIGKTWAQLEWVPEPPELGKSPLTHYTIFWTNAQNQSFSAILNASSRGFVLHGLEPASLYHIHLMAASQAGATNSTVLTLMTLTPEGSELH
Experimental: (§1) To obtain a more detailed picture on the nature of the binding, the inventors fitted the highest concentration sensorgram curves using higher order kinetics models. […] While this higher-order interaction model better explains the data than a 1:1 binding model, a clear deviation remained for rhG-CSF sensorgrams.
(§2) Single-cycle kinetics experiments were performed on a Biacore X100 system (GE Healthcare Life Sciences). G-CSF Receptor (G-CSFR) (R&D systems 381-GR-050/CF) was diluted to 50 μg/ml in 10 mM acetate buffer pH 5.0 and immobilized on the surface of a CM5 sensor chip (GE Healthcare 29149604) using standard amine coupling chemistry. The designs and rhG-CSF (USP RS Filgrastim, Sigma-Aldrich 1270435) were diluted in running buffer (10 mM HEPES, 150 mM NaCl, 3.4 mM EDTA, 0.005% v/v Tween-20). Analyses were conducted at 25° C. at a flow rate of 30 μl/min. Five sequential 10-fold increasing concentrations of the sample solution (for the designs from 0.5 nM to 50 μM, and for rhG-CSF from 0.05 to 500 nM) were injected over the functionalized sensor chip surface for 180 s, followed by a 180 s dissociation with running buffer. At the end of each run, the sensor surface was regenerated with a 240 s injection of 10 mM glycine-HCl pH 2.0. Each experiment was performed two times for rhG-CSF, Boskar3, Boskar4, diSohair2, Moevan, and Moevan_t2. Association rate (ka), dissociation rate (kd), and equilibrium dissociation (Kd) constants were initially obtained by global fitting of the experimental reference-subtracted data to a 1:1 interaction model using the Biacore X100 evaluation software (v.2.0.1).

[3] = target: T1, G-CSF Receptor (G-CSFR) (R&D systems …); test: SPR, Biacore X100 single-cycle kinetics, G-CSFR amine-coupled on CM5, 1:1 binding model, second run
Experimental: as §2, with “(v.2.0.1). To evaluate if a kinetics model that depends on double the analyte stoichiometry improves the goodness of fit to the data, the following rate integral was used: […]” for “(v.2.0.1).”

[4] = target: T2, G-CSFR on NFS-60 cells (murine myeloblastic cell line) (mouse, UniProt P40223 26-837); test: cell-based or functional assay
T2 sequence (looked up): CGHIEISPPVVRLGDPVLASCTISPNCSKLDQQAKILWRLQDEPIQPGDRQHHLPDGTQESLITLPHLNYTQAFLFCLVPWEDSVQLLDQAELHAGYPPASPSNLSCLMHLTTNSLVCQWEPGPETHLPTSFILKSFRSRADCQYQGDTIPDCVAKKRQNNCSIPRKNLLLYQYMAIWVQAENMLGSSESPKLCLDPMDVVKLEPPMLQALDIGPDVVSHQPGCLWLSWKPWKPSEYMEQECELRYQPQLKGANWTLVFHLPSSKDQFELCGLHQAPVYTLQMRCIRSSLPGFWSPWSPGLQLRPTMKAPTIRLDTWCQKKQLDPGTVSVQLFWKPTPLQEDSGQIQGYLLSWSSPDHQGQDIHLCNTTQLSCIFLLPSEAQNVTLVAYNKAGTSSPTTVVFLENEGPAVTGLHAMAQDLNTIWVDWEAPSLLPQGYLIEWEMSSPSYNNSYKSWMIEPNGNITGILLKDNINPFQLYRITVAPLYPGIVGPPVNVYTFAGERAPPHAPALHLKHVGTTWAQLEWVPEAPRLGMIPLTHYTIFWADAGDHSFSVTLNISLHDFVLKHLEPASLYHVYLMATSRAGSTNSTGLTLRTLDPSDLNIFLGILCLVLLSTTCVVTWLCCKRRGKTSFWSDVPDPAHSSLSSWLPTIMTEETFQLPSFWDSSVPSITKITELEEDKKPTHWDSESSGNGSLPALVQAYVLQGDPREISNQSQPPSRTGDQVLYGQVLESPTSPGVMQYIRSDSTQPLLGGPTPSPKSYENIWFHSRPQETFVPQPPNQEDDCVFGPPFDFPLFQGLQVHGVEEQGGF

[5] = target: T1, G-CSF Receptor (G-CSFR) (R&D systems …); test: SPR, 1:1 binding, value for the two runs together as told in the text; 1:1 binding, injection dilution series
Experimental: as §1
as §2, with “Association rate (ka), dissociation rate (kd), and equilibrium dissociation (Kd) constants were initially obtained by global fitting of the experimental reference-subtracted data to a 1:1 interaction model using the Biacore X100 evaluation software (v.2.0.1).” left out

[6] = target: T1, G-CSF Receptor (G-CSFR) (R&D systems …); test: SPR, Biacore X100, G-CSFR amine-coupled on CM5, 2nd order kinetics model
Experimental: as §2, with “(v.2.0.1). To evaluate if a kinetics model that depends on double the analyte stoichiometry improves the goodness of fit to the data, the following rate integral was used: […]” for “(v.2.0.1).”

[7] = target: T1, G-CSF Receptor (G-CSFR) (R&D systems …); test: SPR, second-order reaction model, value as told in the text; second-order reaction model, highest concentration sensorgram
Experimental: as §1, §2

[8] = target: T1, G-CSF Receptor (G-CSFR) (R&D systems …); test: SPR, Biacore X100 single-cycle kinetics, G-CSFR amine-coupled on CM5, 1:1 binding model
Experimental: as §2, with “(v.2.0.1). To evaluate if a kinetics model that depends on double the analyte stoichiometry improves the goodness of fit to the data, the following rate integral was used: […]” for “(v.2.0.1).”

[9] = target: T1, G-CSF Receptor (G-CSFR) (R&D systems …); test: SPR, Biacore X100 single-cycle kinetics, G-CSFR amine-coupled on CM5, 1:1 binding model; Table 10 series (Moevan/diSohair2 comparison), 1:1 binding model
[10] = target: T1, G-CSF Receptor (G-CSFR) (R&D systems …); test: SPR (Biacore), G-CSFR immobilised on the chip, rhG-CSF 4 nM - 64 nM as analyte, five traces with binding model fit [panel A]
[11] = target: T1, G-CSF Receptor (G-CSFR) (R&D systems …); test: SPR, Biacore X100 single-cycle kinetics, G-CSFR amine-coupled on CM5, 1:1 binding model; remark: listed apart in the source
Experimental: To test whether the grafted epitope residues mediate binding of the designs to the G-CSF receptor, the inventors also performed SPR measurements for the Moevan and diSohair2 initial design templates (Moevan_control and diSohair_control, respectively), and no binding was observed (FIG. 20C,F).
as §2, with “(v.2.0.1). To evaluate if a kinetics model that depends on double the analyte stoichiometry improves the goodness of fit to the data, the following rate integral was used: […]” for “(v.2.0.1).”

Question: “csf_2d9q|WILD_TYPE G-CSF (from UniProt P09919 37-204) (ligand)” was tested. Which NFS-60 EC50 (ng/mL), proliferation of NFS-60 cells [1] did it give?
Answer: 0.055 ng/mL

B1: Boskar_3 (designed binder)
chain: AALAAVLAEIYKGLAEYQARLQSLEGISPELGPALDALRLDVADFATTIAQAMEENKGPLPQSFLLKALEQIRKIQADAAALREKLAATYPSSQRAAAAVEIAAQLEAFLEKAYEILRHLAAA
Question: B1 was tested. Which Kd [2] did it give?
Answer: 2600 nM

Question: And the koff [2]?
Answer: 0.0058 s⁻¹

Question: What about the kon [2] of the same molecule?
Answer: 2200 M⁻¹ s⁻¹

Question: What about the Kd [3] of the same molecule?
Answer: 16 nM

Question: What about the koff [3] of the same molecule?
Answer: 0.0019 s⁻¹

Question: And the kon [3]?
Answer: 120000 M⁻¹ s⁻¹

Question: What about the “NFS-60 EC50 (ng/mL), proliferation of NFS-60 cells” value [4] of the same molecule?
Answer: 768 ng/mL

Question: And the Kd [5]?
Answer: 14 nM

Question: And the Kd [6]?
Answer: 6000 nM

Question: And the koff [6]?
Answer: 0.0047 s⁻¹

Question: And the kon [6]?
Answer: 780 M⁻¹ s⁻¹

Question: And the Kd [7]?
Answer: 4400 nM

Question: And the Kd [8]?
Answer: 12 nM

Question: And the koff [8]?
Answer: 0.0015 s⁻¹

Question: And the kon [8]?
Answer: 130000 M⁻¹ s⁻¹

B2: Boskar_4 (designed binder)
chain: AALAAALAEIYKGLAEYQARLKSLEGISPELGPALDALRLDMADFATTMAQAMEEGLDSLPQSFLLKALEQIRKIQADAAALREKLAATYKGNDRAAAAVEIAAQLEAFLEKAYQILRHLAAA
Question: What does the source list for B2?
Answer: Kd [2]: 5800 nM; koff [2]: 0.008 s⁻¹; kon [2]: 1400 M⁻¹ s⁻¹; Kd [3]: 1.7 nM; koff [3]: 0.0015 s⁻¹; kon [3]: 890000 M⁻¹ s⁻¹; NFS-60 EC50 (ng/mL), proliferation of NFS-60 cells [4]: 27 ng/mL; Kd [5]: 5.1 nM; Kd [6]: 6400 nM; koff [6]: 0.0095 s⁻¹; kon [6]: 1500 M⁻¹ s⁻¹; Kd [7]: 6100 nM; Kd [8]: 8.5 nM; koff [8]: 0.0045 s⁻¹; kon [8]: 520000 M⁻¹ s⁻¹

B3: rhG-CSF (recombinant human G-CSF; USP RS Filgrastim, Sigma-Aldrich 1270435) (ligand)
chain: TPLGPASSLPQSFLLKCLEQVRKIQGDGAALQEKLCATYKLCHPEELVLLGHSLGIPWAPLSSCPSQALQLAGCLSQLHSGLFLYQGLLQALEGISPELGPTLDTLQLDVADFATTIWQQMEELGMAPALQPTQGAMPAFASAFQRRAGGVLVASHLQSFLEVSYRVLRHLAQP
Question: B3 was tested. Which Kd [2] did it give?
Answer: 88 nM

Question: And the koff [2]?
Answer: 0.00084 s⁻¹

Question: And the kon [2]?
Answer: 10000 M⁻¹ s⁻¹

Question: And the Kd [3]?
Answer: 0.41 nM

Question: What about the koff [3] of the same molecule?
Answer: 0.00026 s⁻¹

Question: And the kon [3]?
Answer: 640000 M⁻¹ s⁻¹

Question: And the Kd [9]?
Answer: 1.1 nM

Question: What about the Kd [10] of the same molecule?
Answer: 1.4 nM

Question: What about the koff [10] of the same molecule?
Answer: 0.0004 s⁻¹

Question: And the kon [10]?
Answer: 290000 M⁻¹ s⁻¹

Question: What about the Kd [6] of the same molecule?
Answer: 82 nM

Question: And the koff [6]?
Answer: 0.0009 s⁻¹

Question: What about the kon [6] of the same molecule?
Answer: 11000 M⁻¹ s⁻¹

Question: And the Kd [7]?
Answer: 86 nM

Question: What about the koff [11] of the same molecule?
Answer: 0.00049 s⁻¹

Question: What about the kon [11] of the same molecule?
Answer: 300000 M⁻¹ s⁻¹

Question: What about the Kd [8] of the same molecule?
Answer: 0.36 nM

Question: What about the koff [8] of the same molecule?
Answer: 0.00028 s⁻¹

Question: And the kon [8]?
Answer: 790000 M⁻¹ s⁻¹
